Results reported in patent US20200199204A1.

Legend:
Test in all cases: cell-based or functional assay
[1] = target: HIV-1 Env of 0260.v5.c36 (HIV-1)
[2] = target: HIV-1 Env of 191821.E6.1 (HIV-1)
[3] = target: HIV-1 Env of 3016.V5.c36 (HIV-1)
[4] = target: HIV-1 Env of 6405.v4.c34 (HIV-1)
[5] = target: HIV-1 Env of 6535.3 (HIV-1)
[6] = target: HIV-1 Env of 96ZM651.02 (HIV-1)
[7] = target: HIV-1 Env of AC10.29 (HIV-1)
[8] = target: HIV-1 Env of BG505.w6m (HIV-1)
[9] = target: HIV-1 Env of C1080.c3 (HIV-1)
[10] = target: HIV-1 Env of CAAN.A2 (HIV-1)
[11] = target: HIV-1 Env of CAP210.E8 (HIV-1)
[12] = target: HIV-1 Env of CAP244.D3 (HIV-1)
[13] = target: HIV-1 Env of CAP256.PI (HIV-1)
[14] = target: HIV-1 Env of CAP256.SU (HIV-1)
[15] = target: HIV-1 Env of CAP45.G3 (HIV-1)
[16] = target: HIV-1 Env of CM244.ec1 (HIV-1)
[17] = target: HIV-1 Env of CNE3 (HIV-1)
[18] = target: HIV-1 Env of DU156.12 (HIV-1)
[19] = target: HIV-1 Env of DU172.17 (HIV-1)
[20] = target: HIV-1 Env of DU422.01 (HIV-1)
[21] = target: HIV-1 Env of KER2008.12 (HIV-1)
[22] = target: HIV-1 Env of KER2018.11 (HIV-1)
[23] = target: HIV-1 Env of MB201 (HIV-1)
[24] = target: HIV-1 Env of MB539.2B7 (HIV-1)
[25] = target: HIV-1 Env of PVO.04 (HIV-1)
[26] = target: HIV-1 Env of Q168.a2 (HIV-1)
[27] = target: HIV-1 Env of Q23.17 (HIV-1)
[28] = target: HIV-1 Env of Q259.d2.17 (HIV-1)
[29] = target: HIV-1 Env of Q461.e2 (HIV-1)
[30] = target: HIV-1 Env of Q769.d22 (HIV-1)
[31] = target: HIV-1 Env of Q842.d12 (HIV-1)
[32] = target: HIV-1 Env of QH0692.42 (HIV-1)
[33] = target: HIV-1 Env of REJO.67 (HIV-1)
[34] = target: HIV-1 Env of RHPA.7 (HIV-1)
[35] = target: HIV-1 Env of RW020.2 (HIV-1)
[36] = target: HIV-1 Env of SC422.8 (HIV-1)
[37] = target: HIV-1 Env of TH976.17 (HIV-1)
[38] = target: HIV-1 Env of THRO.18 (HIV-1)
[39] = target: HIV-1 Env of TRJO.58 (HIV-1)
[40] = target: HIV-1 Env of TRO.11 (HIV-1)
[41] = target: HIV-1 Env of UG037.8 (HIV-1)
[42] = target: HIV-1 Env of WITO.33 (HIV-1)
[43] = target: HIV-1 Env of ZM109.4 (HIV-1)
[44] = target: HIV-1 Env of ZM135.10a (HIV-1)
[45] = target: HIV-1 Env of ZM197.7 (HIV-1)
[46] = target: HIV-1 Env of ZM214.15 (HIV-1)
[47] = target: HIV-1 Env of ZM233.6 (HIV-1)
[48] = target: HIV-1 Env of ZM249.1 (HIV-1)
[49] = target: HIV-1 Env of ZM53.12 (HIV-1)

CAP256-VRC26.15 (antibody)
IC50 [1]: > 50 µg/mL | IC50 [2]: > 50 µg/mL | IC50 [3]: 0.16 µg/mL | IC50 [4]: > 50 µg/mL | IC50 [5]: > 50 µg/mL | IC50 [6]: > 50 µg/mL | IC50 [7]: > 50 µg/mL | IC50 [8]: 11.7 µg/mL | IC50 [9]: > 50 µg/mL | IC50 [10]: > 50 µg/mL | IC50 [11]: 0.019 µg/mL | IC50 [12]: > 50 µg/mL | IC50 [13]: > 50 µg/mL | IC50 [14]: 0.008 µg/mL | IC50 [15]: > 50 µg/mL | IC50 [16]: 0.112 µg/mL | IC50 [17]: > 50 µg/mL | IC50 [18]: 10.4 µg/mL | IC50 [19]: > 50 µg/mL | IC50 [20]: 0.153 µg/mL | IC50 [21]: > 50 µg/mL | IC50 [22]: 0.04 µg/mL | IC50 [23]: > 50 µg/mL | IC50 [24]: > 50 µg/mL | IC50 [25]: 30 µg/mL | IC50 [26]: > 50 µg/mL | IC50 [27]: 0.338 µg/mL | IC50 [28]: 0.657 µg/mL | IC50 [29]: 19.9 µg/mL | IC50 [30]: > 50 µg/mL | IC50 [31]: 9.35 µg/mL | IC50 [32]: > 50 µg/mL | IC50 [33]: > 50 µg/mL | IC50 [34]: > 50 µg/mL | IC50 [35]: > 50 µg/mL | IC50 [36]: > 50 µg/mL | IC50 [37]: > 50 µg/mL | IC50 [38]: > 50 µg/mL | IC50 [39]: > 50 µg/mL | IC50 [40]: > 50 µg/mL | IC50 [41]: > 50 µg/mL | IC50 [42]: > 50 µg/mL | IC50 [43]: > 50 µg/mL | IC50 [44]: > 50 µg/mL | IC50 [45]: 14.6 µg/mL | IC50 [46]: > 50 µg/mL | IC50 [47]: 0.192 µg/mL | IC50 [48]: > 50 µg/mL | IC50 [49]: 0.014 µg/mL

CAP256-VRC26.16 (antibody)
IC50 [1]: > 50 µg/mL | IC50 [2]: 0.82 µg/mL | IC50 [3]: 0.012 µg/mL | IC50 [4]: > 50 µg/mL | IC50 [5]: > 50 µg/mL | IC50 [6]: > 50 µg/mL | IC50 [7]: > 50 µg/mL | IC50 [8]: 0.36 µg/mL | IC50 [9]: 5.9 µg/mL | IC50 [10]: > 50 µg/mL | IC50 [11]: 0.009 µg/mL | IC50 [12]: > 50 µg/mL | IC50 [13]: > 50 µg/mL | IC50 [14]: 0.004 µg/mL | IC50 [15]: > 50 µg/mL | IC50 [16]: 0.67 µg/mL | IC50 [17]: > 50 µg/mL | IC50 [18]: 48.7 µg/mL | IC50 [19]: > 50 µg/mL | IC50 [20]: 3.9 µg/mL | IC50 [21]: > 50 µg/mL | IC50 [22]: 0.062 µg/mL | IC50 [23]: > 50 µg/mL | IC50 [24]: > 50 µg/mL | IC50 [25]: > 50 µg/mL | IC50 [26]: > 50 µg/mL | IC50 [27]: > 50 µg/mL | IC50 [28]: 5.78 µg/mL | IC50 [29]: > 50 µg/mL | IC50 [30]: > 50 µg/mL | IC50 [31]: > 50 µg/mL | IC50 [32]: > 50 µg/mL | IC50 [33]: > 50 µg/mL | IC50 [34]: > 50 µg/mL | IC50 [35]: > 50 µg/mL | IC50 [36]: > 50 µg/mL | IC50 [37]: > 50 µg/mL | IC50 [38]: > 50 µg/mL | IC50 [39]: > 50 µg/mL | IC50 [40]: > 50 µg/mL | IC50 [41]: > 50 µg/mL | IC50 [42]: > 50 µg/mL | IC50 [43]: > 50 µg/mL | IC50 [44]: > 50 µg/mL | IC50 [45]: 2.21 µg/mL | IC50 [46]: > 50 µg/mL | IC50 [47]: 0.031 µg/mL | IC50 [48]: 45 µg/mL | IC50 [49]: 0.006 µg/mL
